The values that follow come from patent US20060210536A1 (published 2006).

In this experiment the target is STAT3 (Homo sapiens (Human), UniProt P40763 1-770). Briefly: FLAG affinity purification from transfected cell lysate, immunoblot with STAT3 antiserum. (In general: Immunoblotting shows a protein as a band on a membrane.)
Sequence of STAT3 (P40763 whole entry): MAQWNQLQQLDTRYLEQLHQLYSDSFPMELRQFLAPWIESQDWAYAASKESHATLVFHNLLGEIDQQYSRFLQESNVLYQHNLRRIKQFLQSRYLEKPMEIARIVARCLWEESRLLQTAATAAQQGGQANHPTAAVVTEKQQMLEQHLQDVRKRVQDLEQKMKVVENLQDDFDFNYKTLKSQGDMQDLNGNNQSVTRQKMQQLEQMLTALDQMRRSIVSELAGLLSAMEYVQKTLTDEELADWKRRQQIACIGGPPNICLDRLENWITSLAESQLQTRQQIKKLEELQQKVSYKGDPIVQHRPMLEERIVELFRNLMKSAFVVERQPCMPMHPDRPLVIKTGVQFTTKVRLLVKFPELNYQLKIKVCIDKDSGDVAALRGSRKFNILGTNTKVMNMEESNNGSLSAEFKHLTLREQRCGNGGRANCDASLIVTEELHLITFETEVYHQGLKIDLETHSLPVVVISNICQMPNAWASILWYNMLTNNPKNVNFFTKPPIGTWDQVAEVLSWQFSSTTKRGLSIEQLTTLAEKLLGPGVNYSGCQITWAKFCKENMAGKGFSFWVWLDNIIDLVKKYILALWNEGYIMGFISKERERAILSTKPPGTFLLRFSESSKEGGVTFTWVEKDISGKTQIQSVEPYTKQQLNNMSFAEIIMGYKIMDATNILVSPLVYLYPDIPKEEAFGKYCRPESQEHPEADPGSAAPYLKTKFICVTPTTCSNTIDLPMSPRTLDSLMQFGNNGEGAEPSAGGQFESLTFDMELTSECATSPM

B1: FLAG-tagged SV5 V protein (other)
chain: MDPTDLSFSPDEINKLIETGLNTVEYFTSQQVTGTSSLGKNTIPPGVTGLLTNAAEAKIQESTNHQKGSVGGGAKPKKPRPKIAIVPADDKTVPGKPIPNPLLGLDSTPSTQTVLDLSGKTLPSGSYKGVKLAKFGKENLMTRFIEEPRENPIATSSPIDFKRGRDTGGFHRREYSIGWVGDEVKVTEWCNPSCSPITAAARRFECTCHQCPVTCSECERDT
notes: also called FLAG-SV5 V
Regarding B1, the binding result is recorded as “no binding”.
